This passage reports binding result and Kd results from patent US20240368233A1 (University of Washington, published 2024).

Values joined by “and” are separate entries in the source; they are usually repeats but may differ in a detail not shown here. Identical values can stand only once.

The target in one series is T1, DFA-1.
T1 construct: Bivalent connector
T1 chain: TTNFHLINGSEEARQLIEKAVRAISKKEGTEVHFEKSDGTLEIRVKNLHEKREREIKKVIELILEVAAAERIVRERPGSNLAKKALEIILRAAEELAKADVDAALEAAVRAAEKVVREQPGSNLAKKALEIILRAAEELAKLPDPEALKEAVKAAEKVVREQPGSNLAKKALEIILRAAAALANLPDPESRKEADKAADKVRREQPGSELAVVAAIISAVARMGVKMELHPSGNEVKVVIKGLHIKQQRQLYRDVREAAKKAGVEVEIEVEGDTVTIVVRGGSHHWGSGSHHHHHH
In words: SEC of mixed components; trimer listed in Table 6. The method, then:
(§1) Complexes and individual components were diluted in 20 mM Tris pH 8.0, 100 mM NaCl. After o/n equilibration of the mixtures at room temperature or 4 degrees C., 500 ul of sample was injected onto a Superdex™ 200 10/300 increase GL (dimers, linear assemblies) or Superose™ 6 increase 10/300 GL (symmetric assemblies) (all columns from GE healthcare) using the absorbance at 230 nm or 473 nm (for GFP tagged components) as read-out. Dimers were mixed at monomer concentrations of 5 μM or higher. Trimer and ABCD tetramer mixtures contained 5 μM of the bivalent connector, and 7.5 μM of each terminal cap (lower absolute concentrations with the same ratios were used for some trimers). ABCA tetramer mixtures contained 5 μM per bivalent connector and 15 μM terminal cap. The hexamer mixture contained 3 μM of components C and D, 3.6 μM of B and E, and 4.4 μM of A and F. The branched assembly shown in FIG. 4A contained 2.8 μM of the trivalent connector and 4 μM of each cap. For the exchange experiment shown in FIG. 5A, the ABC trimer was preincubated at concentrations of 6 μM B and 9 μM each of A and C. C′ was then added to reach a final concentration of 2 μM B, 3 μM each of A and C, and 6 μM C′.

Series [1] concerns the molecule itself. In words: SEC titration (Superdex 200, normalised A230) of 274B53 and 29B53 alone; self-association.
Series [2] deals with T2, LHD101 chainA, split luciferase reporter construct.
T2 construct: not shown: N-terminal Strep-tag and sfGFP; GS-linker and smBiT or lgBiT
T2 chain: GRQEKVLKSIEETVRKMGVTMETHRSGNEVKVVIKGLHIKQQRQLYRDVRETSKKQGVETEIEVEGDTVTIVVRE
In words: split luciferase equilibrium titration in E. coli lysate, constant partner at 1 nM; first-named construct read as the titrated one; no unit beside the number, M from the axis '[Titrated] / M'.

For a further series, the target named is T3, DF275A-1.
T3 construct: Bivalent connector
T3 chain: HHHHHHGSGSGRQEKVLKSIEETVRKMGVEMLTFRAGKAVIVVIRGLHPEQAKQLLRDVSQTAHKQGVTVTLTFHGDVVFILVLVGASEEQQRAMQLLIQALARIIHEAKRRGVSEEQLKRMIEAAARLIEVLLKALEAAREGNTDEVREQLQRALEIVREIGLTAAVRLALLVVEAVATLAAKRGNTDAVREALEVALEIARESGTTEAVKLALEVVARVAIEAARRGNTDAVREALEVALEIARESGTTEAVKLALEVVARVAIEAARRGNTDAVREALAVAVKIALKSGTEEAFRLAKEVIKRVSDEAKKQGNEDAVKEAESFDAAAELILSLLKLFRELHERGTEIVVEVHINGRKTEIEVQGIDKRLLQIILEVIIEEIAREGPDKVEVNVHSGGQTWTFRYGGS
In words: SEC of partial and full mixtures followed at 473 nm (GFP on component C) and negative-stain EM; components as named for the hexamer in the legend of FIG. 16C and in Table 6. As to the method:
as §1
SEC peak fractions were concentrated prior to negative stain EM screening. Samples were then immediately diluted 5 to 150 times in TBS buffer (25 mM Tris pH 8.0, 25 mM NaCl) depending on sample concentration. […]

Series [3] concerns the molecule itself. In words: SEC titration of the protomer alone at several injection concentrations (Superdex 200, normalised A230); self-association.
For the next series, the target named is T4, TF3.
T4 construct: Trivalent connector
T4 chain: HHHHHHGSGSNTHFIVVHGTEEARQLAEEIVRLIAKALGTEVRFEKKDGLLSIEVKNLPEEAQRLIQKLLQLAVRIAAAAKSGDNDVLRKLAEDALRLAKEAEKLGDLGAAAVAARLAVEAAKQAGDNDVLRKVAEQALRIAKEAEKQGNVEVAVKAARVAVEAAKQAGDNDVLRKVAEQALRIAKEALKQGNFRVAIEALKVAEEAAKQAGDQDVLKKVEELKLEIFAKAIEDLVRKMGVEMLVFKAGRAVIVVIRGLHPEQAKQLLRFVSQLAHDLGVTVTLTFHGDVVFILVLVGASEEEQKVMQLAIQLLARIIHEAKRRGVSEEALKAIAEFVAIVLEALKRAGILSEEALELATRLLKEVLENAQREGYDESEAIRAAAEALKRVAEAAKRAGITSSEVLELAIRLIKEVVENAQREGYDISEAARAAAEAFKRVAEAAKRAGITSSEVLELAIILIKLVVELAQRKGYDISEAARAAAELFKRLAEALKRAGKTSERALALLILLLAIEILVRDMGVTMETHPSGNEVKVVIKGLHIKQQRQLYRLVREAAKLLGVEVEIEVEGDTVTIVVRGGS
In words: SEC of the trivalent connector TF3, its three caps and the full mixture, with SDS-PAGE of the fractions; components named in the legend.

The next series addresses T5, 29B53.
T5 construct: also called LHD29B53
T5 chain: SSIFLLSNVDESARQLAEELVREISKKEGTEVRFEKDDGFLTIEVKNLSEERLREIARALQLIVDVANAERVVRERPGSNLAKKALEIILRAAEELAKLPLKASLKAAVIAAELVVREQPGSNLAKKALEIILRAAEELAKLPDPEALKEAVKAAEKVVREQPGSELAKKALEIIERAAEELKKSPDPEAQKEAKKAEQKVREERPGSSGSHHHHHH
The series is described as follows: SEC titration (Superdex 200, normalised A230) of the complexes 274A53/274B53 and 29A53/29B53.

B1: 274B53 (designed binder)
chain: NTHFIVVHGSEDAAQLAEELVREISKKEGTEVRFEKKDGLLSIEVKNLSEERQREIQKALQLVQDVANAERVVRERPGSNLAKKALEIILRAAEELAKLDLKASLKAAVRAAEKVVREQPGSNLAKKALEIILRAAEELAKLPDPEALKEAVKAAEKVVREQPGSELAKKALEIIERAAEELKKSPDPEAQKEAKKAEQKVREESGSHHWGSGLNDIFEAQKIEWHEGSHHHHHH
notes: also called LHD274B DHR53 stop
B1: the binding result (with DFA-1; in series [1]) was “binds” in each case.

B2: LHD101 chainB, split luciferase reporter construct (designed binder)
chain: GRQEKVLKSIEETVRKMGVTMETHRSGNEVKVVIKGLHESQQEQLLEDVLRTAEKQGVRVRIRFKGDTVTIVVRE
notes: not shown: N-terminal Strep-tag and sfGFP; GS-linker and smBiT or lgBiT
With B2, the equilibrium dissociation constant (Kd) in series [2] is 8 nM and 11 nM.

B3: 275B (designed binder)
chain: GGSDVEWRYTNISEETQQKSAEFVLEIALRAGTGVTFTTRQGELQIQVHNLDELLAIAMLCYTLGLLLGDHRVQELAKRAVEAWERGDEERVKKLLIEALKRLVETAEEVVRERPGSNLAKLALEIILRAAEALARAEDPESLKEAVKAAEKVVREQPGSNLAKKALEIILRAAEELAKLPDPEALKEAVKAAEKVVREQPGSELAKKALEIIERAAEELKKSPDPEAQKEAKKAEQKVREERPGSGGSGSHHWGSGSHHHHHH
notes: also called LHD275 B; LHD275B
For B3, the binding result (in the series with DF275A-1; in series [3]; in the series with TF3) was “binds” throughout.

B4: 29A53 (designed binder)
chain: TWQWVLINISEEARQLIEKAVRAISKKEGTEVHFEKDDGVLHIRVKNLHEKRAREIHKVAKLILEVAAAERIVRERPGSNLAKKALEIILRAAEELAKADVDAALEAAVRAAEKVVREQPGSNLAKKALEIILRAAEELAKLPDPEALKEAVKAAEKVVREQPGSELAKKALEIIERAAEELKKSPDPEAQKEAKKAEQKVREERPGSSGSHHHHHH
notes: also called LHD29A53
In the case of B4, the binding result (in series [3]; with 29B53) was “binds” each time.

As a reminder, the Kd is the equilibrium constant for the complex coming apart. High values mean weaker binding, low ones tighter binding.
